PMC8067440 (Journal of Personalized Medicine, 2021)
Values belong to the molecule of their own block, whether it stands above or below them.

Experiments:
AGT (DMa, major allele) [1] = target: T1, AGT (DMa, major allele) (Homo sapiens, UniProt P21549, F238S/F240S/I340M/P11L/R118A); test: not described in detail here for MMi; assay type: binding; conditions: read-out: KD(PLP)
T1 construct: gene AGXT; full length, expressed in E. coli BL21(DE3), purified on HisPrep FF (His-tagged, removal not mentioned)
T1 sequence (P21549 1-392 P11L/R118A/F238S/F240S/I340M): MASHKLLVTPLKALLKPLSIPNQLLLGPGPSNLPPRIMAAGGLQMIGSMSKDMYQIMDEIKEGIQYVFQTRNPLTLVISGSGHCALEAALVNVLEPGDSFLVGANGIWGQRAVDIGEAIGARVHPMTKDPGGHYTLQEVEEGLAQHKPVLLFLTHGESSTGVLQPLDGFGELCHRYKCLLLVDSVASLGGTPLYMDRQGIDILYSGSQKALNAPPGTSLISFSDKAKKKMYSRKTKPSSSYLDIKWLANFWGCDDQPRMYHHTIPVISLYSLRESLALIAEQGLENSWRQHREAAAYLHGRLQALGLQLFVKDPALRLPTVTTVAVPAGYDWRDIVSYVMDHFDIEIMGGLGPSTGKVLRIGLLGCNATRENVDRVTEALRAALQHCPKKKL
Description: not described in detail here for MMi on AGT (DMa, major allele; rows DMi, MMa, MMi)

[2] = target: T2, DMa-FlAsH (row MMa-FlAsH) (Homo sapiens, UniProt P21549, INS254CCPGCC); test: intrinsic fluorescence quenching of apoenzyme, tight-binding quadratic fit; conditions: 0.1 μM apoenzyme, 24 h incubation, PLP 0.01–10 μM
T2 construct: gene AGXT; full length with CCPGCC FlAsH motif inserted in a surface loop, expressed in E. coli BL21(DE3), purified on HisPrep FF (His-tagged)
T2 sequence (P21549 with tags, fused parts or gaps INS254CCPGCC): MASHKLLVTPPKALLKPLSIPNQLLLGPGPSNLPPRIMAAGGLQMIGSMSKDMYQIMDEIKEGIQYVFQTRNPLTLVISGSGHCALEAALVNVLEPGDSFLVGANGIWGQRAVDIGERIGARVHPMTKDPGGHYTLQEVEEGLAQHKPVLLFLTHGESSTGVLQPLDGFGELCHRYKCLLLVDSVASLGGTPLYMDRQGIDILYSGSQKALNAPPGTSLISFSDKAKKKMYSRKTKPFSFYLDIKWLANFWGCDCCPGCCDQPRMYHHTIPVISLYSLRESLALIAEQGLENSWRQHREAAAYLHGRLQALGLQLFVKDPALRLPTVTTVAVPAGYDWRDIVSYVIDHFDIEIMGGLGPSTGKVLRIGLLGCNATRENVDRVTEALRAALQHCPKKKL
Procedure: intrinsic fluorescence quenching of apoenzyme, tight-binding quadratic fit on DMa-FlAsH (row MMa-FlAsH) | The KD(PLP) of DMa-FlAsH was calculated by measuring the intrinsic fluorescence quenching

AGT (DMa, major allele) [3] = target: T3, AGT (DMa, major allele) (Homo sapiens, UniProt P21549, F238S/F240S/R118A); test: CD signal at […] nm, tight-binding quadratic fit; conditions: read-out: KD(PLP)
T3 construct: gene AGXT; full length, expressed in E. coli BL21(DE3), purified on HisPrep FF (His-tagged, removal not mentioned)
T3 sequence (P21549 1-392 R118A/F238S/F240S): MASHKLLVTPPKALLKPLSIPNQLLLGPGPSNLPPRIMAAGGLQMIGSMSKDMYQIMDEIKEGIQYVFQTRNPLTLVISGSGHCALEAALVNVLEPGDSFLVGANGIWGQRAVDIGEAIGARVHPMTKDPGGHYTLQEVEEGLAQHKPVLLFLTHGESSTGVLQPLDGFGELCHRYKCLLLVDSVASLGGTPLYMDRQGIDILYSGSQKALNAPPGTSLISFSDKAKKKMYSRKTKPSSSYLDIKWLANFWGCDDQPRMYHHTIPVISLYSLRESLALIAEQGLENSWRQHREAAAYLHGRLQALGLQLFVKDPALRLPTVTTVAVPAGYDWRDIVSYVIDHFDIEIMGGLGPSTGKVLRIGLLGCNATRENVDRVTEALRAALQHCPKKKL

AGT (DMa, major allele) [4] = target: T4, AGT (DMa, major allele) (Homo sapiens, UniProt P21549, I340M/P11L); test: not described here for DMi; assay type: binding; conditions: read-out: KD(PLP)
T4 construct: gene AGXT; full length, expressed in E. coli BL21(DE3), purified on HisPrep FF (His-tagged, removal not mentioned)
T4 sequence (P21549 1-392 P11L/I340M): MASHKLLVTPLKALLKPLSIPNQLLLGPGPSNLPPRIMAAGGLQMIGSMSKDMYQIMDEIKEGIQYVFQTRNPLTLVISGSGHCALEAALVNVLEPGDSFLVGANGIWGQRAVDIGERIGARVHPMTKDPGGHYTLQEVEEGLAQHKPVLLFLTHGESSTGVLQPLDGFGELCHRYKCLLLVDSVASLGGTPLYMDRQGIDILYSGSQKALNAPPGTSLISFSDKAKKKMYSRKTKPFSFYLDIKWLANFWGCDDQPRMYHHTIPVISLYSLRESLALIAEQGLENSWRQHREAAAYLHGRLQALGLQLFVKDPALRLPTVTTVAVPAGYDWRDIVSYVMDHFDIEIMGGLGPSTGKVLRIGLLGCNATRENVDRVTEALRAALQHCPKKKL
Description: not described here for DMi on AGT (DMa, major allele; rows DMi, MMa, MMi)

[5] = target: T5, DMa-FlAsH (row MMa-FlAsH) (Homo sapiens, UniProt P21549, R118A/F238S/F240S/INS254CCPGCC); test: CD signal at […] nm, tight-binding quadratic fit; conditions: 10 μM apoenzyme, 24 h incubation, PLP 1–300 μM
T5 construct: gene AGXT; full length with CCPGCC FlAsH motif inserted in a surface loop, expressed in E. coli BL21(DE3), purified on HisPrep FF (His-tagged)
T5 sequence (P21549 with tags, fused parts or gaps R118A/F238S/F240S/INS254CCPGCC): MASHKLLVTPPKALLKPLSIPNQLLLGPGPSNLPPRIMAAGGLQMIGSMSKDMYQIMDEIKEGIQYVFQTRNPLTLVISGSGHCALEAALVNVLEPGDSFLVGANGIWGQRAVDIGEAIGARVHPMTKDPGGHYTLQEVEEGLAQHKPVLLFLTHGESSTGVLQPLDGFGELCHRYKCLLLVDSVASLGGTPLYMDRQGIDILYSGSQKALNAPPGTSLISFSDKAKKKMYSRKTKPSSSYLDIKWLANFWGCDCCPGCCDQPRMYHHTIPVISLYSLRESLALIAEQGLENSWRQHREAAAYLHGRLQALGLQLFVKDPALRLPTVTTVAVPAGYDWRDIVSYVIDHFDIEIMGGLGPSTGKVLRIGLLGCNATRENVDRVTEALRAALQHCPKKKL

AGT (DMa, major allele) [6] = target: T6, AGT (DMa, major allele) (Homo sapiens, UniProt P21549); test: not described here for DMa; assay type: binding; conditions: read-out: KD(PLP)
T6 construct: gene AGXT; full length, expressed in E. coli BL21(DE3), purified on HisPrep FF (His-tagged, removal not mentioned)
T6 sequence (P21549 1-392): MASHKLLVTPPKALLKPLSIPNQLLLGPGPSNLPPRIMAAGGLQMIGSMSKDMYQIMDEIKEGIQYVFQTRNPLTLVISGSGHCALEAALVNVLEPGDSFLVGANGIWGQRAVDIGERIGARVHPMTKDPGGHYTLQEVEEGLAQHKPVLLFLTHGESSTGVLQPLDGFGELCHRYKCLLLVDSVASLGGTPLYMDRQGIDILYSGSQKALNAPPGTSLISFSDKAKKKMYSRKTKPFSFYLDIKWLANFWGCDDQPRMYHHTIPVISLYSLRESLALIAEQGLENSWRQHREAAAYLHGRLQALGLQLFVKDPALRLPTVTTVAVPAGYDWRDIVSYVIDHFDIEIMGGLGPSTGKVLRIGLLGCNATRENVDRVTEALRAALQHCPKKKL
Description: not described here for DMa on AGT (DMa, major allele; rows DMi, MMa, MMi)

[7] = target: artificial monomeric form of alanine:glyoxylate aminotransferase on the major allele (MMa), R118A/F238S/F240S, recombinant purified (human) (UniProt P21549); test: SEC; apo-form; Superdex 200 10/300 GL, room temperature, KP 0.1 M, pH 7.4; samples at different concentrations incubated overnight at 25 °C; percent dimer from peak areas fitted; dimer to monomers
[8] = target: artificial monomeric form of alanine:glyoxylate aminotransferase on the major allele (MMa), R118A/F238S/F240S, recombinant purified (human) (UniProt P21549); test: SEC; holo-form, in the presence of saturating PLP; Superdex 200 10/300 GL, room temperature, KP 0.1 M, pH 7.4; samples at different concentrations incubated overnight at 25 °C; percent dimer from peak areas fitted; dimer to monomers
[9] = target: the molecule itself; test: SEC; apo-form; Superdex 200 10/300 GL, room temperature, KP 0.1 M, pH 7.4; samples at different concentrations incubated overnight at 25 °C; percent dimer from peak areas fitted; dimer to monomers
[10] = target: the molecule itself; test: SEC; holo-form, in the presence of saturating PLP; Superdex 200 10/300 GL, room temperature, KP 0.1 M, pH 7.4; samples at different concentrations incubated overnight at 25 °C; percent dimer from peak areas fitted; dimer to monomers

Kd (AGT (DMa, major allele) [1]): 4400 ± 500 nM
Kd [2]: 250 ± 30 nM
Kd (AGT (DMa, major allele) [3]): 3200 ± 600 nM
Kd (AGT (DMa, major allele) [4]): 260 ± 20 nM
Kd [5]: 7200 ± 1100 nM
Kd (AGT (DMa, major allele) [6]): 270 ± 30 nM
Molecule: Cc1ncc(COP(=O)(O)O)c(C=O)c1O [PLP]

Kd [7]: 4100 nM
Kd [8]: 1500 nM
Molecule: artificial monomeric form of alanine:glyoxylate aminotransferase on the major allele (MMa), R118A/F238S/F240S, recombinant purified (from UniProt P21549 1-392) (enzyme)

B1: alanine:glyoxylate aminotransferase, native dimeric form encoded by the major allele (DMa), recombinant purified (enzyme, human, UniProt P21549 1-392, looked up)
chain: MASHKLLVTPPKALLKPLSIPNQLLLGPGPSNLPPRIMAAGGLQMIGSMSKDMYQIMDEIKEGIQYVFQTRNPLTLVISGSGHCALEAALVNVLEPGDSFLVGANGIWGQRAVDIGERIGARVHPMTKDPGGHYTLQEVEEGLAQHKPVLLFLTHGESSTGVLQPLDGFGELCHRYKCLLLVDSVASLGGTPLYMDRQGIDILYSGSQKALNAPPGTSLISFSDKAKKKMYSRKTKPFSFYLDIKWLANFWGCDDQPRMYHHTIPVISLYSLRESLALIAEQGLENSWRQHREAAAYLHGRLQALGLQLFVKDPALRLPTVTTVAVPAGYDWRDIVSYVIDHFDIEIMGGLGPSTGKVLRIGLLGCNATRENVDRVTEALRAALQHCPKKKL
notes: human alanine:glyoxylate aminotransferase (AGT), major allele (Pro11, Ile340); bacterial construct pAGT-Ma; Homodimer in its native state; Used as apo-form and as holo-form (with PLP); also called AGT; AGT-Ma; source: E. coli BL21(DE3), purified (HisPrep FF)
Kd [9]: < 300 nM
Kd [10]: < 300 nM

B2: alanine:glyoxylate aminotransferase, native dimeric form encoded by the minor allele (DMi), recombinant purified (enzyme, human, UniProt P21549 1-392, looked up)
chain: MASHKLLVTPLKALLKPLSIPNQLLLGPGPSNLPPRIMAAGGLQMIGSMSKDMYQIMDEIKEGIQYVFQTRNPLTLVISGSGHCALEAALVNVLEPGDSFLVGANGIWGQRAVDIGERIGARVHPMTKDPGGHYTLQEVEEGLAQHKPVLLFLTHGESSTGVLQPLDGFGELCHRYKCLLLVDSVASLGGTPLYMDRQGIDILYSGSQKALNAPPGTSLISFSDKAKKKMYSRKTKPFSFYLDIKWLANFWGCDDQPRMYHHTIPVISLYSLRESLALIAEQGLENSWRQHREAAAYLHGRLQALGLQLFVKDPALRLPTVTTVAVPAGYDWRDIVSYVMDHFDIEIMGGLGPSTGKVLRIGLLGCNATRENVDRVTEALRAALQHCPKKKL
notes: human alanine:glyoxylate aminotransferase (AGT), minor allele (Pro11Leu, Ile340Met); bacterial construct pAGT-Mi; Homodimer in its native state; Used as apo-form and as holo-form (with PLP); also called AGT-Mi; source: E. coli BL21(DE3), purified (HisPrep FF)
Kd [9]: < 300 nM
Kd [10]: < 300 nM

B3: artificial monomeric form of alanine:glyoxylate aminotransferase on the minor allele (MMi), R118A/F238S/F240S, recombinant purified (enzyme, human, UniProt P21549 1-392, looked up)
chain: MASHKLLVTPLKALLKPLSIPNQLLLGPGPSNLPPRIMAAGGLQMIGSMSKDMYQIMDEIKEGIQYVFQTRNPLTLVISGSGHCALEAALVNVLEPGDSFLVGANGIWGQRAVDIGEAIGARVHPMTKDPGGHYTLQEVEEGLAQHKPVLLFLTHGESSTGVLQPLDGFGELCHRYKCLLLVDSVASLGGTPLYMDRQGIDILYSGSQKALNAPPGTSLISFSDKAKKKMYSRKTKPSSSYLDIKWLANFWGCDDQPRMYHHTIPVISLYSLRESLALIAEQGLENSWRQHREAAAYLHGRLQALGLQLFVKDPALRLPTVTTVAVPAGYDWRDIVSYVMDHFDIEIMGGLGPSTGKVLRIGLLGCNATRENVDRVTEALRAALQHCPKKKL
notes: human alanine:glyoxylate aminotransferase (AGT), minor allele (Pro11Leu, Ile340Met), with the interfacial mutations R118A/F238S/F240S on pAGT-Mi; Used as apo-form and as holo-form (with PLP); source: E. coli BL21(DE3), purified (HisPrep FF)
Kd [9]: 80000 ± 1000 nM
Kd [10]: 9400 ± 500 nM
